# Test results taken from patent publication US20250011363A1, “OPTIMIZED SHORTENED PEPTIDE THAT BINDS TO ACETYLCHOLINE RECEPTOR, AND USE THEREOF” (SKINMED CO., LTD., priority 2021, published 2025).
# Target: acetylcholine receptor (Homo sapiens, UniProt P02708)
# Test: SPR binding affinity (RU) of optimized 5mer/6mer/7mer peptides, Examples 6-7
# Conditions: SPR, Resonance Units; 5mer Bottom sequence (bottom combinations); peptides tested at 10 μM
# Experimental: Based on the frequencies of occurrence of the top 7 amino acids from Table 7 in Example 5, 600 peptides comprising these amino acids (top combinations) and those comprising the 13 less frequently occurring amino acids (bottom combinations) were synthesized for each series of 5mer, 6mer-1, and 6mer-2. The binding affinity of each sequence for the acetylcholine receptor was measured using Surface Plasmon Resonance (SPR) analysis method. The peptides were tested at a concentration of 10 μM. Additionally, the average binding affinities of the top and bottom combinations in each series are depicted in FIGS. 5-7.
# Representative peptides identified in Example 6, two in each library, including 5mers (73, 311) and 6mers-1 (43, 210) and 6mers-2 (136, 233), were compared with the pre-optimized 6mer, 5mer-ND, and Synake.
# acetylcholine receptor, sequence (P02708 21-457): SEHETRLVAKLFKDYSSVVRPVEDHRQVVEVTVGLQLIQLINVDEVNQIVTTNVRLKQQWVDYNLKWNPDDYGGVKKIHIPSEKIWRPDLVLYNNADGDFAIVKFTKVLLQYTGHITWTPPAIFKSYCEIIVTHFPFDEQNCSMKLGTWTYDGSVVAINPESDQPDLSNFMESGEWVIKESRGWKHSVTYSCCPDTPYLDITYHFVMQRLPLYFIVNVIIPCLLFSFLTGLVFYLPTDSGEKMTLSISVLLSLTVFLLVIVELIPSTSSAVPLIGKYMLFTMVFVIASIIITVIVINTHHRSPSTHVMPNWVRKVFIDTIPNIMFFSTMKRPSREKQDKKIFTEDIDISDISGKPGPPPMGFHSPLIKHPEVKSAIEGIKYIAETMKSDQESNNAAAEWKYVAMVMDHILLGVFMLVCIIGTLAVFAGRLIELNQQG
row,Substance,Binding affinity [Ru]
1,5mer-668 (RPHAK),27
2,5mer-669 (RNPER),24
3,5mer-670 (KPCVK),23
4,5mer-671 (KMNAK),21
5,5mer-672 (KHAPK),12
6,5mer-673 (RISPR),14
7,5mer-674 (KETHR),22
8,5mer-675 (RKPGR),31
9,5mer-676 (RTMFR),18
10,5mer-677 (RCEMR),15
11,5mer-678 (KYMGR),23
12,5mer-679 (KKTVK),21
13,5mer-680 (RFTER),21
14,5mer-681 (KDTMR),18
15,5mer-682 (KPNVK),31
16,5mer-683 (KYPDK),32
17,5mer-684 (KCAER),27
18,5mer-685 (RNDIK),21
19,5mer-686 (RFNIR),18
20,5mer-687 (RMEIR),22
21,5mer-688 (RPHFK),31
22,5mer-689 (RFSDK),20
23,5mer-690 (RAEIK),12
24,5mer-691 (KEWEK),16

row,Substance,Binding affinity [Ru]
1,5mer-692 (RDHWK),15
2,5mer-693 (RPSKK),17
3,5mer-694 (KNNAR),24
4,5mer-695 (KKPDR),26
5,5mer-696 (RCEHR),11
6,5mer-697 (KASKK),25
7,5mer-698 (KFDWK),12
8,5mer-699 (KKNER),12
9,5mer-700 (RAWER),17
10,5mer-701 (RNHNK),22
11,5mer-702 (KISHK),30
12,5mer-703 (KPNWR),22
13,5mer-704 (RFMGK),28
14,5mer-705 (RHAKK),15
15,5mer-706 (RKMAK),27
16,5mer-707 (KIEAK),32
17,5mer-708 (KPKAR),20
18,5mer-709 (RHTIR),27
19,5mer-710 (KEKAR),21
20,5mer-711 (KECIK),32
21,5mer-712 (RADFK),18
22,5mer-713 (KYPKK),16
23,5mer-714 (RPCAK),32
24,5mer-715 (KCNGR),22

row,Substance,Binding affinity [Ru]
1,5mer-716 (KINVR),25
2,5mer-717 (KCKFR),20
3,5mer-718 (RNKKK),19
4,5mer-719 (KISER),21
5,5mer-720 (KDPKR),32
6,5mer-721 (RYSKK),22
7,5mer-722 (KNHKK),33
8,5mer-723 (RASPR),22
9,5mer-724 (KTTAK),14
10,5mer-725 (RNADR),19
11,5mer-726 (KATMK),33
12,5mer-727 (KMDAR),31
13,5mer-728 (KPHIK),19
14,5mer-729 (KEPDK),23
15,5mer-730 (KFCNK),27
16,5mer-731 (KADHK),18
17,5mer-732 (KIMWR),22
18,5mer-733 (KTCDR),23
19,5mer-734 (KATER),16
20,5mer-735 (RHCER),11
21,5mer-736 (KKHHR),24
22,5mer-737 (RINVR),13
23,5mer-738 (KTPMK),29
24,5mer-739 (KDCPR),16

row,Substance,Binding affinity [Ru]
1,5mer-740 (RMMGK),21
2,5mer-741 (KPTPR),14
3,5mer-742 (RNSDK),11
4,5mer-743 (KYAFR),15
5,5mer-744 (KTEAK),32
6,5mer-745 (RMEIK),14
7,5mer-746 (RMTVK),26
8,5mer-747 (RKTDK),31
9,5mer-748 (REPMK),12
10,5mer-749 (KHTWR),24
11,5mer-750 (KEADK),13
12,5mer-751 (RYMMR),20
13,5mer-752 (KAWVK),26
14,5mer-753 (RKTPK),30
15,5mer-754 (RKNER),29
16,5mer-755 (KNWDR),15
17,5mer-756 (RCDWR),18
18,5mer-757 (KYCMR),17
19,5mer-758 (KCDFK),30
20,5mer-759 (KHKMR),17
21,5mer-760 (RIWAR),19
22,5mer-761 (RMPWR),31
23,5mer-762 (KMPER),21
24,5mer-763 (RCHVR),30

row,Substance,Binding affinity [Ru]
1,5mer-764 (KTWPK),19
2,5mer-765 (RNEFR),12
3,5mer-766 (RNMEK),30
4,5mer-767 (RFHFK),12
5,5mer-768 (RDSWR),11
6,5mer-769 (KTEWK),32
7,5mer-770 (KKPFR),11
8,5mer-771 (RKWVK),24
9,5mer-772 (KYWFK),11
10,5mer-773 (RPNMR),25
11,5mer-774 (RTCDR),25
12,5mer-775 (RHTVK),23
13,5mer-776 (RCDFR),17
14,5mer-777 (RYNWK),28
15,5mer-778 (KKDHK),24
16,5mer-779 (KYPPR),21
17,5mer-780 (RDSHK),27
18,5mer-781 (RIDPR),28
19,5mer-782 (KANAR),32
20,5mer-783 (KCKVR),29
21,5mer-784 (RACEK),21
22,5mer-785 (KPTIR),31
23,5mer-786 (RFNKK),29
24,5mer-787 (KDNIR),17

row,Substance,Binding affinity [Ru]
1,5mer-788 (KYHGK),16
2,5mer-789 (KFWIR),12
3,5mer-790 (REAGK),33
4,5mer-791 (KTKMR),26
5,5mer-792 (RMEKK),31
6,5mer-793 (KKPHR),19
7,5mer-794 (KEAPK),20
8,5mer-795 (RTKKR),20
9,5mer-796 (KNWVR),17
10,5mer-797 (KETHK),15
11,5mer-798 (RETMK),13
12,5mer-799 (KDKPR),24
13,5mer-800 (KEAPR),29
14,5mer-801 (KFHGR),20
15,5mer-802 (RITVR),27
16,5mer-803 (RFSDR),11
17,5mer-804 (RNTIR),20
18,5mer-805 (RPTNR),27
19,5mer-806 (RKMFR),17
20,5mer-807 (RKNKK),20
21,5mer-808 (KFCIR),13
22,5mer-809 (RKSGK),15
23,5mer-810 (KFHKK),11
24,5mer-811 (KMTMR),32

# Same assay, conditions: SPR; peptides tested at 10 μM; 5mer Bottom sequence
row,Substance,Binding affinity [Ru]
1,5mer-812 (KTEGR),27
2,5mer-813 (RAHVR),21
3,5mer-814 (RITMR),11
4,5mer-815 (RKDHR),27
5,5mer-816 (RKPIK),26
6,5mer-817 (RHKDR),23
7,5mer-818 (KHWHR),12
8,5mer-819 (RNTIK),19
9,5mer-820 (RIMHK),28
10,5mer-821 (RESDR),12
11,5mer-822 (RAKGK),16
12,5mer-823 (KECFK),26
13,5mer-824 (KIDMK),13
14,5mer-825 (RDEKK),14
15,5mer-826 (KCKMK),11
16,5mer-827 (KKAGR),18
17,5mer-828 (RFCWR),27
18,5mer-829 (KCWHR),26
19,5mer-830 (RIDGK),25
20,5mer-831 (RAAGK),24
21,5mer-832 (RMHER),18
22,5mer-833 (KATAK),33
23,5mer-834 (RMNIK),15
24,5mer-835 (RFMMR),14
